{"source": "patent US8703915B2", "about": "“Mutant proteins and methods for producing them” (Heptares Therapeutics Limited, priority 2009, dated 2014)", "molecules": {"B1": {"name": "OX2WT: wild type human orexin 2 receptor (protein, UniProt O43614 1-444, looked up)", "Orexin receptor type 2": "MSGTKLEDSPPCRNWSSASELNETQEPFLNPTDYDDEEFLRYLWREYLHPKEYEWVLIAGYIIVFVVALIGNVLVCVAVWKNHHMRTVTNYFIVNLSLADVLVTITCLPATLVVDITETWFFGQSLCKVIPYLQTVSVSVSVLTLSCIALDRWYAICHPLMFKSTAKRARNSIVIIWIVSCIIMIPQAIVMECSTVFPGLANKTTLFTVCDERWGGEIYPKMYHICFFLVTYMAPLCLMVLAYLQIFRKLWCRQIPGTSSVVQRKWKPLQPVSQPRGPGQPTKSRMSAVAAEIKQIRARRKTARMLMIVLLVFAICYLPISILNVLKRVFGMFAHTEDRETVYAWFTFSHWLVYANSAANPIIYNFLSGKFREEFKAAFSCCCLGVHHRQEDRLTRGRTSTESRKSLTTQISNFDNISKLSEQVVLTSISTLPAANGAGPLQNW"}}, "tested_on": "OX2 receptor", "assay": "Thermostability of OX2 receptor bound to antagonist EMPA", "assay_type": "physicochemical, human", "conditions": "bound to antagonist EMPA", "method": "Transiently transfected mammalian cells expressing M4 were harvested about 40 hours post transfection and the receptors were solubilised in 50 mM Tris pH 7.5/250 mM NaCl/1% DDM/EDTA free protease inhibitor mix for 1 hour rotating at 4° C. The solubilised lysate was then cleared by centrifugation at 13000 rpm for 15 minutes at 4° C. The solubilised receptors were then purified on Ni-NTA beads and eluted with 100 mM histidine. The eluted receptor was used in radioligand binding assay. Thermostability of M4 was measured using 25 μL of purified receptor mixed with 95 μL of 12 nM [^3H]-NMS (final concentration of 10 nM). The sample was incubated for 60 min at 4° C., then 30 min at the specified temperature and then 30 min at 4° C. Receptor bound and free radioligand were separated using a 96-well plate gel filtration assay.\nA tandem alanine and leucine scanning mutagenesis strategy was used to identify mutations that enhanced the thermostability of OX2 bound to the small-molecule antagonist EMPA.\nThermostability assays were preformed on partially purified receptors as described for M4, with the following amendments. Cell lysates were solubilised in 50 mM Tris pH7.4, 150 mM NaCl, 1% DDM supplemented with 1× complete EDTA free protease inhibitor cocktail (Roche). Radioligand binding reactions were set up using 1/10 volume eluted receptor mixed with 20 nM ^3H-EMPA (final concentration) per temperature point.", "data": [{"molecule": "B1", "values": [{"measurement": "Tm", "result": 28.47, "unit": "°C"}]}]}
